The values below come from patent US20150246136A1 (Bayer, published 2015).

Values joined by “and” are separate entries in the source; they are usually repeats but may differ in a detail not shown here. Equal entries are not always repeated.

Holding throughout (assay): cell-based or functional assay
For test [1], the target named is T1, Carboanhydrase IX (Homo sapiens, UniProt Q16790 38-459).
The target in test [2] is T1, Carboanhydrase IX. This is another data set of the same source.
Test [3] concerns the target Mesothelin (SwissProt reference Q13421-3) (Homo sapiens, UniProt Q13421 37-622).

B1: Example 280 (antibody, human IgG1, kappa, V domains shown)
VH: QVELVESGGGLVQPGGSLRLSCAASGFTFSSYGMSWVRQAPGKGLEWVSGISSLGSTTYYADSVKGRFTISRDNSKNTLYLQMNSLRAEDTAVYYCARTGSPGTFMHGDHWGQGTLVTVSS
VL: DIQMTQSPSSLSASVGDRVTITCRASQDINNYLSWYQQKPGKAPKLLIYGASNLQSGVPSRFSGSGSGTDFTLTISSLQPEDFAVYYCQQYYGRPTTFGQGTKVEIKR
modifications: linker-toxophore on cysteine S
For the molecule B1, the “MIAPaCa 2/CA9+ IC50” value with Carboanhydrase IX [1] was found to be 0.4 nM. Besides, the “EC50 (nM) HT29” value in the test with Carboanhydrase IX [2] was 2.9 nM.

B2: Example 320 (antibody, human IgG1, kappa, V domains shown)
VH: B1 VH
VL: B1 VL
modifications: linker-toxophore on cysteine S
On to B2, for which the “MIAPaCa 2/CA9+ IC50” value in the test with Carboanhydrase IX [1] worked out at 19 nM.

B3: Example 321 (antibody, human IgG1, kappa, V domains shown)
VH: B1 VH
VL: B1 VL
modifications: linker-toxophore on cysteine S
B3: the “MIAPaCa 2/CA9+ IC50” value in the test with Carboanhydrase IX [1] was 220 nM.

B4: Example 315 (antibody, human IgG1, kappa, V domains shown)
VH: B1 VH
VL: B1 VL
modifications: linker-toxophore on cysteine S
Turning to B4, in the test with Carboanhydrase IX [1], the “MIAPaCa 2/CA9+ IC50” value stood at 3.2 nM.

B5: Example 322 (antibody, human IgG1, kappa, V domains shown)
VH: B1 VH
VL: B1 VL
modifications: linker-toxophore on lysine NH
On to B5, for which, in the test with Carboanhydrase IX [1], the “MIAPaCa 2/CA9+ IC50” value was found to be 172 nM.

B6: Example 313 (antibody, human IgG1, kappa, V domains shown)
VH: B1 VH
VL: B1 VL
modifications: linker-toxophore on cysteine S
Regarding B6, in the test with Carboanhydrase IX [1], the “MIAPaCa 2/CA9+ IC50” value was found to be 3.8 nM.

B7: Example 282 (antibody, human IgG1, kappa, V domains shown)
VH: B1 VH
VL: B1 VL
modifications: linker-toxophore on cysteine S
In the case of B7, the “MIAPaCa 2/CA9+ IC50” value in the test with Carboanhydrase IX [1] is 0.05 nM. Moreover, the “EC50 (nM) HT29” value with Carboanhydrase IX [2] is below 0.01 nM.

B8: Example 285 (antibody, human IgG1, kappa, V domains shown)
VH: B1 VH
VL: B1 VL
modifications: linker-toxophore on cysteine S
For the molecule B8, the “MIAPaCa 2/CA9+ IC50” value with Carboanhydrase IX [1] worked out at 0.6 nM. Further, the “EC50 (nM) HT29” value with Carboanhydrase IX [2] came to 0.5 nM.

B9: Example 326 (antibody, human IgG1, kappa, V domains shown)
VH: B1 VH
VL: B1 VL
modifications: linker-toxophore on lysine NH
As for B9, the “MIAPaCa 2/CA9+ IC50” value with Carboanhydrase IX [1] was 2 nM.

B10: Example 324 (antibody, human IgG1, kappa, V domains shown)
VH: B1 VH
VL: B1 VL
modifications: linker-toxophore on cysteine S
B10: in the test with Carboanhydrase IX [1], the “MIAPaCa 2/CA9+ IC50” value worked out at 11 nM.

B11: Example 283 (antibody, human IgG1, kappa, V domains shown)
VH: B1 VH
VL: B1 VL
modifications: linker-toxophore on cysteine S
Consider B11, for which the “MIAPaCa 2/CA9+ IC50” value with Carboanhydrase IX [1] worked out at 0.4 nM. In the test with Carboanhydrase IX [2], the “EC50 (nM) HT29” value is 0.3 nM.

B12: Example 325 (antibody, human IgG1, kappa, V domains shown)
VH: B1 VH
VL: B1 VL
modifications: linker-toxophore on cysteine S
Turning to B12, the “MIAPaCa 2/CA9+ IC50” value with Carboanhydrase IX [1] worked out at 137 nM.

B13: Example 284 (antibody, human IgG1, kappa, V domains shown)
VH: B1 VH
VL: B1 VL
modifications: linker-toxophore on cysteine S
With B13, in the test with Carboanhydrase IX [1], the “MIAPaCa 2/CA9+ IC50” value is 0.9 nM. Further, in the test with Carboanhydrase IX [2], the “EC50 (nM) HT29” value was 0.7 nM and 1.6 nM; the “EC50 (nM) SNU-5” value is 3 nM and 2.2 nM.

B14: Example 314 (antibody, human IgG1, kappa, V domains shown)
VH: B1 VH
VL: B1 VL
modifications: linker-toxophore on lysine NH
For B14, the “MIAPaCa 2/CA9+ IC50” value in the test with Carboanhydrase IX [1] was found to be 150 nM.

B15: Example 281 (antibody, human IgG1, kappa, V domains shown)
VH: B1 VH
VL: B1 VL
modifications: linker-toxophore on cysteine S
For the molecule B15, the “MIAPaCa 2/CA9+ IC50” value in the test with Carboanhydrase IX [1] was 1.2 nM. Also, in the test with Carboanhydrase IX [2], the “EC50 (nM) HT29” value came out at 1.7 nM.

B16: Example 323 (antibody, human IgG1, kappa, V domains shown)
VH: B1 VH
VL: B1 VL
modifications: linker-toxophore on lysine NH
B16: the “MIAPaCa 2/CA9+ IC50” value with Carboanhydrase IX [1] was determined as 238 nM.

B17: Example 327 (antibody, human IgG1, kappa, V domains shown)
VH: B1 VH
VL: B1 VL
modifications: linker-toxophore on cysteine S
B17: the “MIAPaCa 2/CA9+ IC50” value with Carboanhydrase IX [1] stood at 19 nM.

B18: Example 145, conjugate of anti-mesothelin antibody MF-Ta (antibody, human IgG1, lambda, V domains shown)
VH: QVELVQSGAEVKKPGESLKISCKGSGYSFTSYWIGWVRQAPGKGLEWMGIIDPGDSRTRYSPSFQGQVTISADKSISTAYLQWSSLKASDTAMYYCARGQLYGGTYMDGWGQGTLVTVSS
VL: DIALTQPASVSGSPGQSITISCTGTSSDIGGYNSVSWYQQHPGKAPKLMIYGVNNRPSGVSNRFSGSKSGNTASLTISGLQAEDEADYYCSSYDIESATPVFGGGTKLTVLG
modifications: toxophore-linker on Lys NH, sites not given
With B18, the “IC50 (nM), HT29 meso+ cells, MTT proliferation assay” value (“IC50 (nM), HT29 meso+ cells” for short) in test [3] came to 7.4 nM.

B19: Example 369, conjugate of anti-mesothelin antibody MF-Ta (antibody, human IgG1, lambda, V domains shown)
VH: B18 VH
VL: B18 VL
modifications: toxophore-linker on Lys NH, sites not given
In the case of B19, the “IC50 (nM), HT29 meso+ cells” value in test [3] stood at 0.02 nM.

B20: Example 154, conjugate of anti-mesothelin antibody MF-Ta (antibody, human IgG1, lambda, V domains shown)
VH: B18 VH
VL: B18 VL
modifications: toxophore-linker on Cys sulfur, sites not given
In the case of B20, the “IC50 (nM), HT29 meso+ cells” value in test [3] is 2.2 nM.

B21: Example 366, conjugate of anti-mesothelin antibody MF-Ta (antibody, human IgG1, lambda, V domains shown)
VH: B18 VH
VL: B18 VL
modifications: toxophore-linker on Cys sulfur, sites not given
On to B21, for which the “IC50 (nM), HT29 meso+ cells” value in test [3] amounted to 1.3 nM.

B22: Example 156, conjugate of anti-mesothelin antibody MF-Ta (antibody, human IgG1, lambda, V domains shown)
VH: B18 VH
VL: B18 VL
modifications: toxophore-linker, coupling residue not stated
Regarding B22, in test [3], the “IC50 (nM), HT29 meso+ cells” value was 4.6 nM.

B23: Example 147, conjugate of anti-mesothelin antibody MF-Ta (antibody, human IgG1, lambda, V domains shown)
VH: B18 VH
VL: B18 VL
modifications: toxophore-linker on Lys NH, sites not given
On to B23, for which the “IC50 (nM), HT29 meso+ cells” value in test [3] was found to be 5.6 nM.

B24: Example 380 (Diastereomer 2), conjugate of anti-mesothelin antibody MF-Ta (antibody, human IgG1, lambda, V domains shown)
VH: B18 VH
VL: B18 VL
modifications: toxophore-linker on Lys NH, sites not given
As for B24, the “IC50 (nM), HT29 meso+ cells” value in test [3] stood at 15 nM.

B25: Example 155, conjugate of anti-mesothelin antibody MF-Ta (antibody, human IgG1, lambda, V domains shown)
VH: B18 VH
VL: B18 VL
modifications: toxophore-linker, coupling residue not stated
Take B25: the “IC50 (nM), HT29 meso+ cells” value in test [3] came out at 0.5 nM.

B26: Example 149, conjugate of anti-mesothelin antibody MF-Ta (antibody, human IgG1, lambda, V domains shown)
VH: B18 VH
VL: B18 VL
modifications: toxophore-linker on Lys NH, sites not given
For B26, in test [3], the “IC50 (nM), HT29 meso+ cells” value was 3.1 nM.

B27: Example 146, conjugate of anti-mesothelin antibody MF-Ta (antibody, human IgG1, lambda, V domains shown)
VH: B18 VH
VL: B18 VL
modifications: toxophore-linker on Lys NH, sites not given
For the molecule B27, the “IC50 (nM), HT29 meso+ cells” value in test [3] amounted to 13 nM.

B28: Example 152, conjugate of anti-mesothelin antibody MF-Ta (antibody, human IgG1, lambda, V domains shown)
VH: B18 VH
VL: B18 VL
modifications: toxophore-linker on Lys NH, sites not given
Turning to B28, the “IC50 (nM), HT29 meso+ cells” value in test [3] worked out at 4.1 nM.

B29: Example 153, conjugate of anti-mesothelin antibody MF-Ta (antibody, human IgG1, lambda, V domains shown)
VH: B18 VH
VL: B18 VL
modifications: toxophore-linker on Cys sulfur, sites not given
As to B29, the “IC50 (nM), HT29 meso+ cells” value in test [3] turned out to be 30 nM.

B30: Example 157, conjugate of anti-mesothelin antibody MF-Ta (antibody, human IgG1, lambda, V domains shown)
VH: B18 VH
VL: B18 VL
modifications: toxophore-linker, coupling residue not stated
Regarding B30, the “IC50 (nM), HT29 meso+ cells” value in test [3] amounted to 0.09 nM.

B31: Example 158, conjugate of anti-mesothelin antibody MF-Ta (antibody, human IgG1, lambda, V domains shown)
VH: B18 VH
VL: B18 VL
modifications: toxophore-linker, coupling residue not stated
With B31, in test [3], the “IC50 (nM), HT29 meso+ cells” value is 0.18 nM.

B32: Example 151, conjugate of anti-mesothelin antibody MF-Ta (antibody, human IgG1, lambda, V domains shown)
VH: B18 VH
VL: B18 VL
modifications: toxophore-linker on Cys sulfur, sites not given
Turning to B32, in test [3], the “IC50 (nM), HT29 meso+ cells” value is above 1000 nM.

B33: Example 377, conjugate of anti-mesothelin antibody MF-Ta (antibody, human IgG1, lambda, V domains shown)
VH: B18 VH
VL: B18 VL
modifications: toxophore-linker on Cys sulfur, sites not given
As for B33, the “IC50 (nM), HT29 meso+ cells” value in test [3] worked out at 1.6 nM.

B34: Example 367, conjugate of anti-mesothelin antibody MF-Ta (antibody, human IgG1, lambda, V domains shown)
VH: B18 VH
VL: B18 VL
modifications: toxophore-linker on Lys NH, sites not given
As for B34, the “IC50 (nM), HT29 meso+ cells” value in test [3] was determined as 0.06 nM.

B35: Example 379 (Diastereomer 1), conjugate of anti-mesothelin antibody MF-Ta (antibody, human IgG1, lambda, V domains shown)
VH: B18 VH
VL: B18 VL
modifications: toxophore-linker on Lys NH, sites not given
For the molecule B35, the “IC50 (nM), HT29 meso+ cells” value in test [3] is 7 nM.

B36: Example 368, conjugate of anti-mesothelin antibody MF-Ta (antibody, human IgG1, lambda, V domains shown)
VH: B18 VH
VL: B18 VL
modifications: toxophore-linker on Lys NH, sites not given
On to B36, for which the “IC50 (nM), HT29 meso+ cells” value in test [3] turned out to be 3.1 nM.

B37: Example 148, conjugate of anti-mesothelin antibody MF-Ta (antibody, human IgG1, lambda, V domains shown)
VH: B18 VH
VL: B18 VL
modifications: toxophore-linker on Lys NH, sites not given
As for B37, the “IC50 (nM), HT29 meso+ cells” value in test [3] is 425 nM.

B38: Example 159, conjugate of anti-mesothelin antibody MF-Ta (antibody, human IgG1, lambda, V domains shown)
VH: B18 VH
VL: B18 VL
modifications: toxophore-linker, coupling residue not stated
As for B38, in test [3], the “IC50 (nM), HT29 meso+ cells” value was 177 nM.

B39: Example 150, conjugate of anti-mesothelin antibody MF-Ta (antibody, human IgG1, lambda, V domains shown)
VH: B18 VH
VL: B18 VL
modifications: toxophore-linker on Lys NH, sites not given
For the molecule B39, the “IC50 (nM), HT29 meso+ cells” value in test [3] is below 0.1 nM.

B40: Example 378, conjugate of anti-mesothelin antibody MF-Ta (antibody, human IgG1, lambda, V domains shown)
VH: B18 VH
VL: B18 VL
modifications: toxophore-linker on Lys NH, sites not given
For B40, in test [3], the “IC50 (nM), HT29 meso+ cells” value worked out at 0.04 nM.
